Experimental data reported in the supplement of paper PMC10567573.
± gives the standard deviation.

Assay: protein stability index of a GFP-peptide fusion (GPS, HEK-293T) (PSI 1-6); higher = more stable
[1] = treatment: DMSO, c terminus: a fixed tail appended
[2] = treatment: MLN4924 1 uM, 8 h, c terminus: a fixed tail appended
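Further: 24-mer peptide tiles fused after GFP, lentivirally expressed, FACS-sorted into six equal bins by GFP/DsRed ratio, decoded by Illumina sequencing, PSI is the read-weighted mean bin number.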

| Sequence | protein stability index [1] | protein stability index [2] | protein stability index (treatment: DMSO, c terminus: native) | protein stability index (treatment: MLN4924 1 uM, 8 h, c terminus: native) |
| --- | --- | --- | --- | --- |
| RKAAKSLIKLGLERFHGVGILGFN [ACSBG2] | 2.64 ± 0.49 | 2.51 ± 0.35 | – | – |
| LDPAYTTLEFENVQVLTMGNDTSP [HNF4A] | 5.58 ± 0.15 | 5.46 ± 0.18 | – | – |
| QHECVNTDDSYSCHCLKGFTLNPD [MATN2] | 4.04 ± 0.16 | 4.15 ± 0.25 | – | – |
| ENAGGSPSPEPAGRRAALYVHWPY [RSAD1] | 3 ± 0.4 | 3.23 ± 0.34 | – | – |
| LLSVDAFAAPSPATTASPAKVDSS [SNAP91] | 4.86 ± 0.21 | 4.87 ± 0.07 | – | – |
| YSRGYRNRRSSRETREYAPPSRGH [RBMY1A1] | 4.38 ± 0.27 | 4.76 ± 0.23 | – | – |
| GGAAGAGWCIFVYNLSPEADESVL [ELAVL3] | 3.22 ± 1.1 | 2.52 ± 0.91 | – | – |
| SDGFRDCKKGDPKHGKRKRGRPRK [ELF3] | 5.18 ± 0.35 | 5.22 ± 0.15 | – | – |
| GETRICKIYDSPCLPEAEAMFAIN [RAD51] | 3.53 ± 0.4 | 3.65 ± 0.35 | – | – |
| YVKPQSCIDIVIRHVAPIPSHYDV [MOSPD3] | 2.97 ± 0.74 | 2.74 ± 0.85 | – | – |
| LYFSIHRYEQGRFWPHLKASNWST [HDAC6] | 2.77 ± 0.66 | 2.73 ± 0.64 | – | – |
| YTSSQKVSPIQIDGAGRTWQDSDT [TOR1AIP2] | 3.62 ± 0.36 | 4.2 ± 0.51 | – | – |
| QAPPVPGPPPGAPHTPQTPGQGGP [NR2F2] | 5.22 ± 0.56 | 5.05 ± 0.38 | – | – |
| EAEADKPRRLGRLKYQAPDIDVQL [NOP53] | 4.63 ± 0.22 | 4.4 ± 0.2 | – | – |
| ETTGIQIWSEVFTVEKPGGKKVAV [ATL3] | 2.79 ± 0.24 | 3.01 ± 0.2 | – | – |
| SPLAADPACLGQPHTPGKPTSSCT [FOXJ1] | 4.95 ± 0.17 | 4.89 ± 0.2 | – | – |
| DSGDVSNVIEKVKCILKTPGKINC [RHOBTB3] | 2.92 ± 0.21 | 2.87 ± 0.5 | – | – |
| PNAGEQPGQVAGADFESEDEGEEF [EID1] | 5.59 ± 0.28 | 5.46 ± 0.33 | – | – |
| QEYQVLLDVRARLECEINTYRSLL [KRT33B] | 2.25 ± 0.34 | 2.19 ± 0.26 | – | – |
| NLTSPASITFTTGLEAPRDLEAKE [TNXB] | 5.21 ± 0.51 | 5.51 ± 0.36 | – | – |
| EHSHRSHHSLASSLRSHHTHPSYG [DVL3] | 3.48 ± 0.25 | 3.56 ± 0.19 | – | – |
| SRPVKGQVVTVHLQTSLENGTRVQ [FKBP8] | 3.38 ± 0.45 | 3.51 ± 0.26 | – | – |

| Sequence | protein stability index [1] | protein stability index [2] | protein stability index (treatment: DMSO, c terminus: native) | protein stability index (treatment: MLN4924 1 uM, 8 h, c terminus: native) |
| --- | --- | --- | --- | --- |
| WDPHNGDILMEFGHLFPPPTPIFA [WSB1] | 2.38 ± 0.31 | 2.21 ± 0.27 | – | – |
| MNRSIPVEVDESEPYPSQLLKPIP [TRAF3IP2] | 4.44 ± 0.19 | 4.45 ± 0.34 | – | – |
| MGSQHSAAARPSSCRRKQEDDRDG [TMEM106C] | 5.22 ± 0.15 | 5.4 ± 0.15 | – | – |
| ADKYALERLKVMCEEALCSNLSVE [SPOPL] | 3.56 ± 0.18 | 3.62 ± 0.18 | – | – |
| PSSQKALLLELKGLQEEPVEGFRV [CDC34] | 3.68 ± 0.14 | 3.47 ± 0.14 | – | – |
| EMRTKEQILELLVLEQFLTILPQE [ZNF263] | 2.44 ± 0.35 | 2.26 ± 0.43 | – | – |
| LFCDVTLTAQGQQFHCHKAVLASC [KLHL14] | 2.66 ± 0.55 | 2.71 ± 0.57 | – | – |
| KLFFVDTGSKEKGLTKKRTKVQKK [NOP53] | 3.26 ± 0.13 | 3.83 ± 0.54 | – | – |
| MMSLTKLADKELVHMISWAKKIPG [ESR2] | 2.17 ± 0.19 | 2.16 ± 0.12 | – | – |
| VVCQPNEFIMPDSAVVGDVLVLTK [SEPHS2] | 2.35 ± 0.19 | 2.56 ± 0.36 | – | – |
| APVTFRHHRYDDLVRTLYKVQNEC [CPN1] | 2.62 ± 0.065 | 2.83 ± 0.12 | – | – |
| AAVLQYASLVGQKCSERMLLFRN [ATE1] | – | – | 2.38 ± 0.043 | 2.27 ± 0.33 |
| IYTNRYETNEEDKTLQEIYRKYRK [FBXO39] | 2.96 ± 0.32 | 3.58 ± 0.61 | – | – |
| EKYSVATQLFIGGVTGWCTGFIFQ [FUNDC2] | 2.75 ± 0.75 | 3.06 ± 0.35 | – | – |
| QEVLSLRRENSTLDVECHEKEKHV [SASS6] | 5.2 ± 0.38 | 5.52 ± 0.4 | – | – |
| PPRRSRSRSHDRLPYQRRYRERRD [CLK3] | 4.51 ± 0.29 | 4.72 ± 0.32 | – | – |
| SIYDNVPGSILYSSSGDLADLENE [DLC1] | 4.843 ± 0.034 | 4.75 ± 0.12 | – | – |
| STSRAHKLPSRRQPGLLHLQSCGD [FAM189A2] | 3.67 ± 0.33 | 3.85 ± 0.13 | – | – |
| SSLSFFLKKMGKRLDYLNLKGARL [FBXO39] | 2.96 ± 0.66 | 2.63 ± 0.43 | – | – |
| EAERKIIEENITSAAPSNDQDGEY [SRPK2] | 5.66 ± 0.17 | 5.69 ± 0.26 | – | – |
| VLIFKSILFLPCLRKKILKIRHGW [STEAP1] | 2.16 ± 0.51 | 2.38 ± 0.25 | – | – |
| NLENPMRRIHSLPQKLLGCSPALK [CDC25A] | 2.64 ± 0.23 | 3.11 ± 0.32 | – | – |
